Assay results as given in patent US20210355225A1 (OSE IMMUNOTHERAPEUTICS, published 2021).
Like-named read-outs stand apart in the source and are kept apart here.

Tests used:
[1] = target: chimeric PD-1 receptor fused to Beta-gal fragment (ED) on Jurkat T cells (DiscoverX PathHunter Jurkat PD-1 … (UniProt Q15116 25-288)); assay: cell-based or functional assay
[2] = target: T1, human PD-1 expressed on the cell surface (human, UniProt Q15116 25-288); assay: cell-based or functional assay
[3] = target: T1, human PD-1 expressed on the cell surface; assay: flow cytometry on CD3/CD28 stimulated human T cells (PD1+ CD3+); given as ED50
Procedure: (§1) Detection was performed with a donkey anti-human antibody coupled to peroxidase and revelation was performed by colorimetry at 450 nm using TMB substrate. […] B: Assessment of antibody binding by cytofluorometry on CD3/CD28 stimulated human PBMCs. […] Data are represented by Mean Fluorescence Intensity (MFI) staining in PD1+ positive CD3+ T cell population. C: Assessment of antibody binding by cytofluorometry on CD3/CD28 stimulated T cells. […] Data are represented by Mean Fluorescence Intensity (MFI) staining in PD1+ positive CD3+ T cell population

[4] = target: T2, Recombinant hPD1-His (Sino Biologicals, reference […]-H08H) (human, UniProt Q15116 25-167); assay: Blitz (BLI), hPD1-His on Ni-NTA biosensor, antibody 20 µg/mL in solution (avidity)
T2 construct: Bought reagent; also called human PD1 recombinant protein; PD-1 recombinant protein; not shown: histidine tail
Procedure: The binding affinity/avidity was measured using Blitz method (Forté Bio; USA; reference C22-2 No 61010-1). […] Then, anti-PD1 antibodies were associated with 20 μg/mL for 120 seconds. The dissociation of anti-PD1 antibody was made in kinetics buffer for 120 seconds. Analysis data was made with the Blitz pro 1.2 software, which calculated association constant (ka) and dissociation constant (kd) and determined the affinity constant KD […].

[5] = target: T2, Recombinant hPD1-His (Sino Biologicals, …); assay: ELISA, immobilized recombinant hPD1, purified antibody from HEK cells; given as ED50
Procedure: as §1

[6] = target: T3, biotinylated Human PD1 (AcroBiosystems, reference EP-101) (human, UniProt Q15116 25-167, biotinylated); assay: competition ELISA, immobilized hPDL1 as competitor, biotinylated PD1 0.66 µg/ml mixed with antibody
T3 construct: also called Biotin-PD-1Fc; not shown: Fc part implied by the name 'Biotin-PD-1Fc'

[7] = target: T2, Recombinant hPD1-His (Sino Biologicals, …); assay: Biacore SPR, antibody captured on anti-human Fc, hPD1-His as analyte
Procedure: The affinity measurement was performed by Biacore in PP21 platform (Inserm U1194, Université de Montpellier). Anti-human Fc antibody (GEHealthcare) was immobilized at 25 μg/ml in acetate buffer pH5.

[8] = target: T1, human PD-1 expressed on the cell surface; assay: Flow cytometry on CD3/CD28 stimulated human PBMCs, PE-labelled mouse anti-human Fc mAb, MFI in the PD1+ CD3+ T cell population
Procedure: as §1

[9] = target: T2, Recombinant hPD1-His (Sino Biologicals, …); assay: ELISA on immobilised recombinant hPD1, DO 450 nm
[10] = target: T2, Recombinant hPD1-His (Sino Biologicals, …); assay: ELISA on immobilised recombinant hPD1, DO 450 nm; remark: listed apart in the source
[11] = target: T2, Recombinant hPD1-His (Sino Biologicals, …); assay: Biacore competition with PDL1 for PD1, relative response in % of no Ab

Sequence of chimeric PD-1 receptor fused to Beta-gal fragment (ED) on Jurkat T cells (DiscoverX PathHunter Jurkat PD-1 … (Q15116 25-288, change not shown): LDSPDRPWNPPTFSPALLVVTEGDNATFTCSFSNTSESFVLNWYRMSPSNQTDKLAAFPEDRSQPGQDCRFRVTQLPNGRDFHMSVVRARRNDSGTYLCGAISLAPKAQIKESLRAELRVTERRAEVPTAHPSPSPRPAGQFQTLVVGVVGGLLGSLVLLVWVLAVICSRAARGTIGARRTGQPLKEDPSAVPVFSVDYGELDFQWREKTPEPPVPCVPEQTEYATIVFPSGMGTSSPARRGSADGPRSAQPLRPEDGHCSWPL
T1 sequence (Q15116 25-288): as the sequence (Q15116 25-288, change not shown) above
T3 sequence (Q15116 25-167): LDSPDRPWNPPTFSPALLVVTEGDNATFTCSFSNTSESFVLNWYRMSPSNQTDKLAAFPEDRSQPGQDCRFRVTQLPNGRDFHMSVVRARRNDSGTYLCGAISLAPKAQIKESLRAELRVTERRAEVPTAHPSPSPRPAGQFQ

| IC50 of PD-1/pSHP-1 signaling, DiscoverX PathHunter Jurkat PD-1 (SHP1) assay, chemiluminescence [1] [ng/mL] | ED50 of NFAT luciferase luminescence, Promega PD-1/PD-L1 bioassay [2] [µg/mL] | EC50 [3] [nM] | Kd [4] [nM] | koff [4] [s⁻¹] | kon [4] [M⁻¹ s⁻¹] | EC50 [5] [µg/mL] | IC50 [6] [µg/mL] | Kd [7] [nM] | koff [7] [s⁻¹] | kon [7] [M⁻¹ s⁻¹] | EC50 (read off the curve) [8] [µg/mL] | EC50 (read off the curve) [9] [µg/mL] | EC50 (read off the curve) [10] [µg/mL] | binding result [11] | Binder |
| --- | --- | --- | --- | --- | --- | --- | --- | --- | --- | --- | --- | --- | --- | --- | --- |
| 12.7 | 0.41 | 0.278 | 1.34 | 0.000429 | 319000 | 0.0127 | 0.196 |  |  |  |  |  |  |  | HCLD (antibody, human IgG4 S228P, kappa, V domains shown, also called humanized anti-PD1 variant HC heavy chain + LD light chain) VH: QIQLVQSGSELKKPGASVKVSCKASGYTFTHYAMNWVRQAPGQGLEWMGWINTNTGEPTYAQGFTGRFVFSLDTSVSTAYLQISSLKAEDTAVYYCAREREPGMDSWGQGTLVTVSS VL: DVVMTQSPLSLPVTLGQPASISCRSSQSLVHANTNTYLEWYQQRPGQSPRLLIYKVSNRFSGVPDRFSGSGSGTDFTLKISRVEAEDVGVYYCFQGTHVPNTFGQGTKLEIKR |
| 13.4 | 0.9 | 0.241 | 1.05 | 0.000432 | 410000 | 0.0134 | 0.194 |  |  |  |  |  |  |  | HJLD (antibody, human IgG4 S228P, kappa, V domains shown, also called humanized anti-PD1 variant HJ heavy chain + LD light chain) VH: QIQLVQSGSELKKPGASVKVSCKASGYTFTHYAMNWVRQAPGQGLEWMGWINTNTGEPTYAQGFTGRFVFSLDTSVSTAYLQISSLKAEDTAVYYCAREREPGMDYWGQGTLVTVSS VL: DVVMTQSPLSLPVTLGQPASISCRSSQSLVHANTNTYLEWYQQRPGQSPRLLIYKVSNRFSGVPDRFSGSGSGTDFTLKISRVEAEDVGVYYCFQGTHVPNTFGQGTKLEIKR |
| 11.4 | 0.69 | 0.187 | 0.75 | 0.000262 | 351000 | 0.0114 | 0.205 | 4.1 | ~0.00133 | 324000 |  |  |  |  | HKLD (antibody, human IgG4 S228P, kappa, V domains shown, also called humanized anti-PD1 variant HK heavy chain + LD light chain; humanized anti PD-1 (HKLD variant)) VH: QIQLVQSGSELKKPGASVKVSCKASGYTFTHYAMNWVRQAPGQGLEWMGWINTNTGEPTYAQGFTGRFVFSLDTSVSTAYLQISSLKAEDTAVYYCAREREPGMDNWGQGTLVTVSS VL: DVVMTQSPLSLPVTLGQPASISCRSSQSLVHANTNTYLEWYQQRPGQSPRLLIYKVSNRFSGVPDRFSGSGSGTDFTLKISRVEAEDVGVYYCFQGTHVPNTFGQGTKLEIKR |
| 16.9 | 0.54 | 0.133 | 0.84 | 0.000343 | 405000 | 0.0164 | 0.201 |  |  |  |  |  |  |  | HHLD (antibody, human IgG4 S228P, kappa, V domains shown, also called humanized anti-PD1 variant HH heavy chain + LD light chain) VH: QIQLVQSGSELKKPGASVKVSCKASGYTFTHYAMNWVRQAPGQGLEWMGWINTNTGEPTYAQGFTGRFVFSLDTSVSTAYLQISSLKAEDTAVYYCAREREPGMDHWGQGTLVTVSS VL: DVVMTQSPLSLPVTLGQPASISCRSSQSLVHANTNTYLEWYQQRPGQSPRLLIYKVSNRFSGVPDRFSGSGSGTDFTLKISRVEAEDVGVYYCFQGTHVPNTFGQGTKLEIKR |
|  |  |  |  |  |  |  |  |  |  |  | ~0.3 |  |  |  | HELC (antibody, human IgG4 S228P, kappa, V domains shown, also called humanized anti-PD1 variant HE heavy chain + LC light chain) VH: QIQLVQSGSELKKPGASVKVSCKASGYTFTHYAMNWVRQAPGQGLEWMGWINTNTGEPTYAQGFTGRFVFSLDTSVSTAYLQISSLKAEDTAVYYCAREREPGMDTWGQGTLVTVSS VL: DVVMTQSPLSLPVTLGQPASISCRSSQSLVHANGNTYLEWYQQRPGQSPRLLIYKVSNRFSGVPDRFSGSGSGTDFTLKISRVEAEDVGVYYCFQGTHVPNTFGQGTKLEIKR |
| 19.2 | 0.46 | 0.402 | 1.14 | 0.000507 | 443000 | 0.0192 | 0.196 |  |  |  | ~0.3 | ~0.009 | ~0.01 |  | HELD (antibody, human IgG4 S228P, kappa, V domains shown, also called humanized anti-PD1 variant HE heavy chain + LD light chain; HELD(V94)) VH: QIQLVQSGSELKKPGASVKVSCKASGYTFTHYAMNWVRQAPGQGLEWMGWINTNTGEPTYAQGFTGRFVFSLDTSVSTAYLQISSLKAEDTAVYYCAREREPGMDTWGQGTLVTVSS VL: DVVMTQSPLSLPVTLGQPASISCRSSQSLVHANTNTYLEWYQQRPGQSPRLLIYKVSNRFSGVPDRFSGSGSGTDFTLKISRVEAEDVGVYYCFQGTHVPNTFGQGTKLEIKR |
|  |  |  |  |  |  |  |  |  |  |  |  |  |  | binds | HCLC (antibody, human IgG4 S228P, kappa, V domains shown, also called humanized anti-PD1 variant HC heavy chain + LC light chain) VH: QIQLVQSGSELKKPGASVKVSCKASGYTFTHYAMNWVRQAPGQGLEWMGWINTNTGEPTYAQGFTGRFVFSLDTSVSTAYLQISSLKAEDTAVYYCAREREPGMDSWGQGTLVTVSS VL: DVVMTQSPLSLPVTLGQPASISCRSSQSLVHANGNTYLEWYQQRPGQSPRLLIYKVSNRFSGVPDRFSGSGSGTDFTLKISRVEAEDVGVYYCFQGTHVPNTFGQGTKLEIKR |
| 14.8 | 1.16 | 1.54 | 1.28 | 0.000352 | 274000 | 0.0147 | 0.178 |  |  |  |  |  |  |  | HGLD (antibody, human IgG4 S228P, kappa, V domains shown, also called humanized anti-PD1 variant HG heavy chain + LD light chain) VH: QIQLVQSGSELKKPGASVKVSCKASGYTFTHYAMNWVRQAPGQGLEWMGWINTNTGEPTYAQGFTGRFVFSLDTSVSTAYLQISSLKAEDTAVYYCAREREPGMESWGQGTLVTVSS VL: DVVMTQSPLSLPVTLGQPASISCRSSQSLVHANTNTYLEWYQQRPGQSPRLLIYKVSNRFSGVPDRFSGSGSGTDFTLKISRVEAEDVGVYYCFQGTHVPNTFGQGTKLEIKR |
| 16.6 | 0.89 | 0.223 | 1.25 | 0.000554 | 441000 | 0.0166 | 0.156 |  |  |  |  |  |  |  | HLLD (antibody, human IgG4 S228P, kappa, V domains shown, also called humanized anti-PD1 variant HL heavy chain + LD light chain) VH: QIQLVQSGSELKKPGASVKVSCKASGYTFTHYAMNWVRQAPGQGLEWMGWINTNTGEPTYAQGFTGRFVFSLDTSVSTAYLQISSLKAEDTAVYYCAREREPGMDEWGQGTLVTVSS VL: DVVMTQSPLSLPVTLGQPASISCRSSQSLVHANTNTYLEWYQQRPGQSPRLLIYKVSNRFSGVPDRFSGSGSGTDFTLKISRVEAEDVGVYYCFQGTHVPNTFGQGTKLEIKR |
| 11.6 | 0.4 | 0.118 | 0.93 | 0.000427 | 458000 | 0.0115 | 0.175 |  |  |  |  |  |  |  | HILD (antibody, human IgG4 S228P, kappa, V domains shown, also called humanized anti-PD1 variant HI heavy chain + LD light chain) VH: QIQLVQSGSELKKPGASVKVSCKASGYTFTHYAMNWVRQAPGQGLEWMGWINTNTGEPTYAQGFTGRFVFSLDTSVSTAYLQISSLKAEDTAVYYCAREREPGMDAWGQGTLVTVSS VL: DVVMTQSPLSLPVTLGQPASISCRSSQSLVHANTNTYLEWYQQRPGQSPRLLIYKVSNRFSGVPDRFSGSGSGTDFTLKISRVEAEDVGVYYCFQGTHVPNTFGQGTKLEIKR |
